Here are results for 96 substances from the supplement of paper PMC12042874.

± gives the uncertainty stated by the source.

The data set can be described thus: amyloid nucleation score (Sup35N fusion, yeast selection) (log enrichment); library NNK3; higher = more nucleation; inactive = no reads after selection. The essentials:
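Yeast lacking psi expressed peptides of 20 random codons fused to Sup35N, received 100 μM copper sulfate for 24 hours, and were then grown for 7 days at 30°C on medium lacking adenine and uracil. Illumina sequencing of input and output plasmid inserts provided the reads. Nucleation scores are DiMSum log enrichments of output over input, centred on the mode of non-aggregating sequences. Any sequence with under 100 input reads was excluded.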

Consider PLPAYCGYVLIGVHGYPFDI, for which the amyloid nucleation score entry was “inactive”.

Take PSSLKCKLAI: the amyloid nucleation score entry was “inactive”.

For RCNALSLWIYNEKSWNNTWY, the amyloid nucleation score was found to be 1.74 ± 0.084.

With NTHKQWVRTLRWVLVSYNCC, the amyloid nucleation score result was “inactive”.

Regarding PILELGGRSFTTWRC, the amyloid nucleation score entry is “inactive”.

On to FCVTQWRAQRASHLYFMPGE, for which the amyloid nucleation score result is “inactive”.

As to GGQVRDCDNVEQCSATNSEG, the amyloid nucleation score entry was “inactive”.

Turning to YRILTGLSLSFRVCIYFVW, the amyloid nucleation score entry was “inactive”.

As for FVLESFCRPLHSWVAGMGV, the amyloid nucleation score result is “inactive”.

In the case of YASDWVRRPGRN, the amyloid nucleation score result is “inactive”.

For the substance IMLKGS, the amyloid nucleation score result is “inactive”.

As to FVGRFCMFNLGRCLPIVLGS, the amyloid nucleation score result was “inactive”.

For GMCKGMVIGSAVDFTMFSAA, the amyloid nucleation score result was “inactive”.

With PEAVTCCNQKMTPVFIIGHP, the amyloid nucleation score entry was “inactive”.

As for VFLGCYSSYIVIWDARAPG, the amyloid nucleation score was 1.96 ± 0.071.

As to ATTNKLIYSHMVGKMLTSSF, the amyloid nucleation score result was “inactive”.

CSVLDKEVFGGTSQDSDSYL: the amyloid nucleation score result is “inactive”.

As for PFCLPRGASCRAGCGEHIKG, the amyloid nucleation score result is “inactive”.

KICVPSCSCTIFLDLFRY came in with an amyloid nucleation score of 2.56 ± 0.08.

With NIISNDLSEASIYNGFVCNR, the amyloid nucleation score entry is “inactive”.

As to GVSIGNCTMKGEVDFMVDGK, the amyloid nucleation score entry was “inactive”.

Consider LNLMD, for which the amyloid nucleation score entry was “inactive”.

Turning to HNCLVLVCDTCLSVYWNFSS, the amyloid nucleation score is 2.83 ± 0.052.

As for IKPCGCSVLDIRT, the amyloid nucleation score entry is “inactive”.

Substance QAYAS came in with an amyloid nucleation score of -0.099 ± 0.96.

For the substance SSYLI, the amyloid nucleation score result was “inactive”.

CWTTINVSGCPNVGGGTVLQ returned an amyloid nucleation score of 0.9 ± 0.17.

Regarding MRYGKLDLSRVYLQCDRLGR, the amyloid nucleation score entry was “inactive”.

For the substance PDLTKNSWYLYSYRLV, the amyloid nucleation score entry was “inactive”.

On to DRVKACARFGRW, for which the amyloid nucleation score entry is “inactive”.

The substance LFSICINICLY showed an amyloid nucleation score of 1.79 ± 0.092.

Take GDCFWSPDKNWIALEVFQTF: the amyloid nucleation score result was “inactive”.

For the substance WWFLGGRSRGDRGILMVDVA, the amyloid nucleation score stood at 0.214 ± 0.53.

GFESPRGFSSVFSIVYGFWA showed an amyloid nucleation score of 0.855 ± 0.2.

Regarding CNLRMCNGA, the amyloid nucleation score entry is “inactive”.

Take VEQMLVFDTPLSYLVKQVKF: the amyloid nucleation score result is “inactive”.

Take YTYQTLLADLNKGFMYSRRW: the amyloid nucleation score entry is “inactive”.

Regarding WVRCVRQGVYLRYVLLLCEI, the amyloid nucleation score result is “inactive”.

For MCNFCQLFFTLLITSLFKLG, the amyloid nucleation score came out at 0.807 ± 0.18.

Take LVHIGFWCEVVQPLSCTDTS: the amyloid nucleation score was found to be 0.028 ± 0.65.

In the case of FKAPWLSGP, the amyloid nucleation score entry is “inactive”.

On to TKLCQSLRHAQRGTRTTSFS, for which the amyloid nucleation score result was “inactive”.

On to LYGISL, for which the amyloid nucleation score result was “inactive”.

Regarding RWKMTCFSSYNG, the amyloid nucleation score result was “inactive”.

In the case of SCFGECCI, the amyloid nucleation score entry was “inactive”.

In the case of DGKFRSNWSYGVLWMLVFLY, the amyloid nucleation score entry is “inactive”.

Regarding KTYPTLCILCVDMLLRKRGV, the amyloid nucleation score result is “inactive”.

Substance SSSATGPAYGNKQATFRRLV displayed an amyloid nucleation score of -0.457 ± 0.9.

For the substance SFERSSSSST, the amyloid nucleation score result was “inactive”.

On to SCFQQGNFWCSVFFNVGGQL, for which the amyloid nucleation score was determined as 2.64 ± 0.059.

For the substance CGTCSDYGYHFGCTDRGVDC, the amyloid nucleation score entry is “inactive”.

The substance EGNCELCRLWYNWGRVAGNK came in with an amyloid nucleation score of 0.457 ± 0.2.

Take MMMQLNGVHMV: the amyloid nucleation score result was “inactive”.

Turning to MILLLGLDRKHSSGESKALI, the amyloid nucleation score entry was “inactive”.

LNLLSSSMIWSFVIGNRRVY: the amyloid nucleation score entry is “inactive”.

In the case of WKPGRYSTKAPQLEVPERHV, the amyloid nucleation score entry is “inactive”.

For YNFWMRQVVMRVTVCGNDEA, the amyloid nucleation score entry is “inactive”.

Turning to GPNDLSMAFRTLYDQAVPYV, the amyloid nucleation score is -0.521 ± 1.

With FLAGDWSKGFNKYYTYYISK, the amyloid nucleation score entry is “inactive”.

Consider LCIWNWFLSSNRMLRKLAD, for which the amyloid nucleation score entry was “inactive”.

For the substance FFVHRCIYVNGWKGQTHSSQ, the amyloid nucleation score entry is “inactive”.

Turning to DGSIGRGVDRRLTKSSQPAL, the amyloid nucleation score result is “inactive”.

On to TRNSYCTFRGGIIFCL, for which the amyloid nucleation score amounted to 1.25 ± 0.09.

With TLWFQPDFTHVRRWYGLGLR, the amyloid nucleation score entry was “inactive”.

In the case of SSPRPLCPDLRLVDIIQILI, the amyloid nucleation score result was “inactive”.

In the case of TTQILAL, the amyloid nucleation score entry was “inactive”.

For the substance RALLTGWTMSRPGLFIIATS, the amyloid nucleation score was -0.273 ± 1.1.

In the case of QSYVFVVLTPWVSRCGIGLA, the amyloid nucleation score result was “inactive”.

As for PRCVC, the amyloid nucleation score result is “inactive”.

On to CDSYKVYRVLNKQGWFCRGS, for which the amyloid nucleation score result was “inactive”.

Substance VISGNNVCSIRSDFRKIFFY returned an amyloid nucleation score of 0.762 ± 0.17.

MVMQIYIDDRPSMKVLYSEM had an amyloid nucleation score of 0.485 ± 0.21.

For SSFYCRAFGDRNVWKWQWCL, the amyloid nucleation score result is “inactive”.

Regarding EFVRVLRDISLVSGVMGYHY, the amyloid nucleation score result is “inactive”.

As for MHLVYQDILSYIAWSRVPLR, the amyloid nucleation score result was “inactive”.

For FFNYIIMEIHFFALLSHRKH, the amyloid nucleation score result was “inactive”.

Regarding VTQLWVLNSVSVYWKDLVAP, the amyloid nucleation score is -0.319 ± 1.1.

Regarding SIPLGFGMLSDDKSI, the amyloid nucleation score entry was “inactive”.

As to RVFGCKKGGSRLW, the amyloid nucleation score entry is “inactive”.

As to SYDVNTDFVLCDYSRDTGSQ, the amyloid nucleation score entry is “inactive”.

For the substance YITLRGLWRYCQVMLVYVWK, the amyloid nucleation score result is “inactive”.

For AVIRFCPGRNSESDSRAHRP, the amyloid nucleation score entry was “inactive”.

MFRVMSSVKLLS came in with an amyloid nucleation score of -0.754 ± 0.96.

Consider ACDTVEDGTSGGHCWVCGDG, for which the amyloid nucleation score result is “inactive”.

For ILTHIVWLFVRLSCMNWNWL, the amyloid nucleation score result is “inactive”.

NNRVLQRRPHRFHGANVTWS came in with an amyloid nucleation score of -0.677 ± 1.4.

In the case of YSSVTTIVVPSLNAYILNCR, the amyloid nucleation score entry is “inactive”.

As for MKFRLTSSRQSDEAHFMWLT, the amyloid nucleation score is 1.28 ± 0.085.

In the case of SCECSSNMGEAFRKLVGTSA, the amyloid nucleation score entry was “inactive”.

MSTVRHVRWRQGQGKMRGRK: the amyloid nucleation score entry is “inactive”.

Consider ENWTDGM, for which the amyloid nucleation score result was “inactive”.

Turning to GDDSSRHFNEFLYNRFAALW, the amyloid nucleation score entry is “inactive”.

Take SLIYTRFGSTSWCSKNF: the amyloid nucleation score was determined as 1.53 ± 0.14.

For FSPRKSLASLGITVVVDHCI, the amyloid nucleation score was -0.057 ± 0.81.

With VNFFGR, the amyloid nucleation score entry was “inactive”.

Turning to LSVRSTLARLPSGVIMMRSM, the amyloid nucleation score result is “inactive”.
